Source: article PMC8245513, “Recapitulation of selective nuclear import and export with a perfectly repeated 12mer GLFG peptide” (Nature Communications, 2021)

Columns and labels:
[1] = target: T1, Alexa Fluor 488-labeled rat NTF2 (rat, UniProt P61972 1-127, Alexa Fluor 488 label (site not stated)); experiment: partitioning into FG phase particles (FG particle permeation assay, confocal laser-scanning microscopy); FG domain diluted out of 4 M guanidinium hydrochloride into 50 mM Tris/HCl pH 7.5, 150 mM NaCl, 5 mM DTT, 5 µM FG domain; fluorescent probe in the buffer (mCherry 5 µM, probes with partition coefficient ≥2 at 0.75 µM); particles sedimented 60 min; ratio of fluorescence inside to outside the particles; 21 °C; settings: both partners purified
T1 construct: nuclear transport factor 2 (NTF2), rat, 30-kDa nuclear transport receptor (dimer); The methods say that most NTRs were His-tagged fusions whose tags were cleaved off; also called Alexa488-labeled NTF2; source: bacterial expression construct, purified (native Ni(II) chelate chromatography)
T1 sequence (P61972 whole entry, the tested form may be a part): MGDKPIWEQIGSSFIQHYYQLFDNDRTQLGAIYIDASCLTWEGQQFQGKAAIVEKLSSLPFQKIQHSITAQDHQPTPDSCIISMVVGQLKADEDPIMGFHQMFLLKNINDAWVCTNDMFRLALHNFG

human Exportin 1 = target: T2, human Exportin 1 (human, UniProt O14980 1-1071); experiment: NTR-dependent recruitment of a fluorescent cargo into FG phase particles (confocal laser-scanning microscopy); prf.GLFG_(52x12) phase challenged with import cargo (IBB-EGFP; IBB-MBP-GFP-M9) or export cargo (NES-EGFP + RanQ69L) in the absence or presence of the corresponding NTRs (Impβ, transportin, Xpo1); settings: both partners purified
T2 construct: Exportin 1 (Xpo1/CRM1), human; also called hsXpo1; Xpo1; source: bacterial expression construct, purified (native Ni(II) chelate chromatography)
T2 sequence (O14980 whole entry): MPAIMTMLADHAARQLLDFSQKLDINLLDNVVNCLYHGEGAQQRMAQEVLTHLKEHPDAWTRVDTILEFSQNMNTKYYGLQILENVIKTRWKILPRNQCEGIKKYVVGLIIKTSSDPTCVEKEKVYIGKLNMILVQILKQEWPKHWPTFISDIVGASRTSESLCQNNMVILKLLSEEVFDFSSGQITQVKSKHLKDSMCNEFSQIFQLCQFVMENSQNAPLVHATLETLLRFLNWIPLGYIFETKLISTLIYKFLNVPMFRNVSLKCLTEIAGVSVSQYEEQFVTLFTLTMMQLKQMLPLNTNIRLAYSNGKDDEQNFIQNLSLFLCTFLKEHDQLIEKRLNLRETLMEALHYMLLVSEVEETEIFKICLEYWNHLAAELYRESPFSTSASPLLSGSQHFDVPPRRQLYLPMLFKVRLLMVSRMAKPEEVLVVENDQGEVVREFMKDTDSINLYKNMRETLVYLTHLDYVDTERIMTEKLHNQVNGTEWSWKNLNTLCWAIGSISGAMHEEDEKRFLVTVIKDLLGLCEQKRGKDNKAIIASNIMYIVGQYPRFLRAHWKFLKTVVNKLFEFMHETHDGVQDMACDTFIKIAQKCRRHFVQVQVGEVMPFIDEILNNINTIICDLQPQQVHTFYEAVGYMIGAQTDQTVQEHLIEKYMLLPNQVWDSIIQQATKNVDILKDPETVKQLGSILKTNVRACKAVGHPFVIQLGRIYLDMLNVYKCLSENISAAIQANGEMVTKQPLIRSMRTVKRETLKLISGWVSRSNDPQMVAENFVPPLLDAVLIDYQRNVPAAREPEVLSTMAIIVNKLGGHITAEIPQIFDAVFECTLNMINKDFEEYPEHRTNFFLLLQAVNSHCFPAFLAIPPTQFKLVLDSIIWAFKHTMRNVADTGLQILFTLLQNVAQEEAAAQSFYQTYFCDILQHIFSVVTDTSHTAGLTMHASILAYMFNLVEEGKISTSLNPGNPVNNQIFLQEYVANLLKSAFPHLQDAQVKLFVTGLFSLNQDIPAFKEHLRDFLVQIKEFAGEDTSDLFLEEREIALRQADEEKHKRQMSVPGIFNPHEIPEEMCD

Binder | binding result [1] | fold stimulation of the cargo's entry into the prf.GLFG_(52x12) phase by Xpo1 (with RanQ69L) (human Exportin 1) [fold]
prf.GLFG_(52x12) (other, C-terminal Cys residue fused for maleimide labelling; also called GLEBS-free, perfectly repeated FG variant; ultimately simplified FG domain) GGLFGGNTQPATGGLFGGNTQPATGGLFGGNTQPATGGLFGGNTQPATGGLFGGNTQPATGGLFGGNTQPATGGLFGGNTQPATGGLFGGNTQPATGGLFGGNTQPATGGLFGGNTQPATGGLFGGNTQPATGGLFGGNTQPATGGLFGGNTQPATGGLFGGNTQPATGGLFGGNTQPATGGLFGGNTQPATGGLFGGNTQPATGGLFGGNTQPATGGLFGGNTQPATGGLFGGNTQPATGGLFGGNTQPATGGLFGGNTQPATGGLFGGNTQPATGGLFGGNTQPATGGLFGGNTQPATGGLFGGNTQPATGGLFGGNTQPATGGLFGGNTQPATGGLFGGNTQPATGGLFGGNTQPATGGLFGGNTQPATGGLFGGNTQPATGGLFGGNTQPATGGLFGGNTQPATGGLFGGNTQPATGGLFGGNTQPATGGLFGGNTQPATGGLFGGNTQPATGGLFGGNTQPATGGLFGGNTQPATGGLFGGNTQPATGGLFGGNTQPATGGLFGGNTQPATGGLFGGNTQPATGGLFGGNTQPATGGLFGGNTQPATGGLFGGNTQPATGGLFGGNTQPATGGLFGGNTQPATGGLFGGNTQPATGGLFGGNTQPATGGLFGGNTQPATC | binds | –
SNELALKLAGLDIN (other, PKI-type NES core with short flanks, mEGFP carrier left out; the exact construct (PKI01, pTG-A450) is not printed and may be an optimised NES variant) [NES(PKI)-EGFP] | – | 3500
